According to patent publication US8299028B2, “Chimeric peptide antagonist for GPCR135 or GPCR142” (Janssen Pharmaceutica NV, priority 2007, dated 2012):

How the values were obtained:
human LGR7 = molecular target: T1, human LGR7 (Homo sapiens, UniProt Q9HBX9); assay: Radioligand binding assay, 125I-relaxin-2 tracer, COS-7 cells expressing LGR7; parameters: expressed in transfected cells
T1 sequence (Q9HBX9 1-757): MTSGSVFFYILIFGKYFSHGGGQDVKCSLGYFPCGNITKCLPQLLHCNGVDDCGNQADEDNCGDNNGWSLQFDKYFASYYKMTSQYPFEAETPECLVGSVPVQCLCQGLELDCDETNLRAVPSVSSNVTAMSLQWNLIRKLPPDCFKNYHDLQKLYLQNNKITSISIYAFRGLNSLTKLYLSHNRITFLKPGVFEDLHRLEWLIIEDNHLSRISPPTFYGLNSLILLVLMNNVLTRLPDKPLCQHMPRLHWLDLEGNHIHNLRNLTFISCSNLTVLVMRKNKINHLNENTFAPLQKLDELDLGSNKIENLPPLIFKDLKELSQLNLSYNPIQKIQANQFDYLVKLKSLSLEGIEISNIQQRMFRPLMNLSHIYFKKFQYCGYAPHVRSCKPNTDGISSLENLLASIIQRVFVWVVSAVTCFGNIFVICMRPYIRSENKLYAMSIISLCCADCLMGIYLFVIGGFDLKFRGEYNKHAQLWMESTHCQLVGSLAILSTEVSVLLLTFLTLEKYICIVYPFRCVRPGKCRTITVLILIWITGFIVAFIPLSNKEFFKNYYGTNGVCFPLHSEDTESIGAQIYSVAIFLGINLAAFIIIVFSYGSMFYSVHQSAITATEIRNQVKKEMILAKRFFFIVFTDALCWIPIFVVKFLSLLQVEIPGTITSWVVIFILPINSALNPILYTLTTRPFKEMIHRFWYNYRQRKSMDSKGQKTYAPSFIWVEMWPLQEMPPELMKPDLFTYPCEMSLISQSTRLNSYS
From the text: (§1) COS-7 cells in 24-well tissue culture plates transiently expressing GPCR135, GPCR142 or LGR7 were used in radioligand binding assays as described by Liu et al., 2005a, J. Biol. Chem., 280:292-300. ^125I-Relaxin-3/INSL5 (^125I-R3/I5), a radiolabeled chimeric peptide with the human relaxin-3 B-chain and the human INSL5 A-chain (Liu et al., 2005b), was used at a final concentration of 50 pM as the tracer to characterize the binding properties of all truncated relaxin-3 peptides for GPCR135 and GPCR142. ^125I-relaxin-2 (PerkinElmer Biosciences, Boston) was used at a final concentration of 50 pM to characterize the binding properties of the truncated peptides for the relaxin receptor (LGR7). The results were analyzed by GraphPad Prism 4.0 software (Graphpad, San Diego). The IC50 values, which are the ligand concentrations that inhibited 50% of the maximum specific binding, were then calculated.

human GPCR135 [1] = molecular target: T2, human GPCR135 (Homo sapiens, UniProt Q9NSD7); assay: Agonist assay, inhibition of forskolin-induced β-gal expression in SK-N-MC/CRE-β-gal cells; format: cell-based; parameters: expressed in transfected cells; conditions: human GPCR135 agonist response, mean ± SEM; NA = no agonist activity observed
T2 sequence (Q9NSD7 1-469): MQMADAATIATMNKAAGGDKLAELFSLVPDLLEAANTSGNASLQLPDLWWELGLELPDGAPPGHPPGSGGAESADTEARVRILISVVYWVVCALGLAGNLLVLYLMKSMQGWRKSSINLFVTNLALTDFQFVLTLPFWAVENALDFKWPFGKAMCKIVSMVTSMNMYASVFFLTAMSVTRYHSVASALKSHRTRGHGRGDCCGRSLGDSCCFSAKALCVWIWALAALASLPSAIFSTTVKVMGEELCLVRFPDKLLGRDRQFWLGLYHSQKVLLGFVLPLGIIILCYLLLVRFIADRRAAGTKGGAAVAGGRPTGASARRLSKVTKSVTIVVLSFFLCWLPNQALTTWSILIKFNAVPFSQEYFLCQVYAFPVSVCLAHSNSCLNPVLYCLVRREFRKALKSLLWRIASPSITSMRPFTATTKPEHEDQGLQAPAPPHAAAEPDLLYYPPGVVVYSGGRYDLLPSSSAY
Description: FIG. 1 provides a characterization of mutant relaxin-3 peptides as ligands for human GPCR135, GPCR142, and LGR7. The truncated peptides were tested for their GPCR135 and GPCR142 agonist activity using SK-N-MC/CRE-β-gal cells expressing either human GPCR135 (A) or GPCR142 (B). Agonists for GPCR135 or GPCR142 inhibit forskolin induced β-galactosidase (β-gal) expression. The LGR7 agonist activity of the truncated peptides was tested using SK-N-MC/CRE-β-gal cells expressing Gαs-linked human LGR7 (C). Human relaxin-3 was used as positive control in both cases. β-gal expression was measured by colorimetric assay using CPRG as the substrate and reading the absorbance at 570 nm.
All peptides were tested for their GPCR135, GPCR142, and LGR7 agonist activities in SK-N-MC/CRE cells expressing the relevant receptors as described by Liu et al., 2005b. […] An increase in cAMP concentration in these cells is associated with increased β-gal expression, which can be measured using Chlorophenol Red-β-D-Galactopyranoside (CRGP) as a substrate and reading the optical absorbance at 570 nm. […] The results were analyzed using GraphPad Prism 4.0 software. […] The agonism and antagonism of peptides for rat LGR7 was assayed using a cAMP luminescence assay. […] The cAMP in the cells was measured with a cAMP detection kit (DiscoveRx HitHunter, Cat. #90-0041) according to the manufacturer's protocol. […]

human GPCR135 [2] = molecular target: T2, human GPCR135; assay: Radioligand binding assay, 125I-R3/I5 tracer, COS-7 cells expressing GPCR135; parameters: expressed in transfected cells; host or cells: COS-7
From the text: as §1

R3(BΔ23-27)R: Relaxin-3 mutant: B-chain SEQ ID NO:15 (Gly23-Trp27 deleted plus C-terminal Arg), relaxin-3 A-chain SEQ ID NO:13
affinity of human LGR7 (human LGR7): low affinity | EC50 (human GPCR135 [1]): > 1000 nM | affinity of human GPCR135 (human GPCR135 [2]): high affinities
